Results as given in patent publication US20130315910A1 (Xencor, published 2013).
Where a chain is given by its changes, count along the chain named. Names may count otherwise.

T1: cynoFcγRIIb (Macaca fascicularis, UniProt A0A140HDP4)
T1 construct: extracellular region, C-terminal His- and GST-tag; also called cynomolgus monkey FcγRIIb
T1 sequence (receptor extracellular region): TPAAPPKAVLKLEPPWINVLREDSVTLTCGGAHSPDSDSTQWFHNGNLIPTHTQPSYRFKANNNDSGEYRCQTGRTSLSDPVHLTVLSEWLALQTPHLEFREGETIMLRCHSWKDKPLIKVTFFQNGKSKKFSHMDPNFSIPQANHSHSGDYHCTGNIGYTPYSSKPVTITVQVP

T2: mFcγRIIb (Mus musculus, UniProt P08101)
T2 construct: extracellular region, C-terminal His- and GST-tag; also called mouse FcγRII
T2 sequence (receptor extracellular region, looked up): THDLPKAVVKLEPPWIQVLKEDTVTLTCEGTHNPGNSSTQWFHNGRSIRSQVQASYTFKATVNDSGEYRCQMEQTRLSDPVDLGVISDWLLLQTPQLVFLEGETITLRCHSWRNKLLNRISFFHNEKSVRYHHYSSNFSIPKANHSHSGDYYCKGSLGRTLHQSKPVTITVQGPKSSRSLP

T3: human FcγRIIb receptor protein (R&D Systems) (human, UniProt P31994 46-217)
T3 construct: Bought protein injected over captured antibody in Biacore; also called CD32b
T3 sequence (looked up): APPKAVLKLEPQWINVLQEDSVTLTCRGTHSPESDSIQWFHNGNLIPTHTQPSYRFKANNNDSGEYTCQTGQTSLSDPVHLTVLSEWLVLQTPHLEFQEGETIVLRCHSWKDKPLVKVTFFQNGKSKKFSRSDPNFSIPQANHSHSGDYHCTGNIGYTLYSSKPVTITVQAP

B1: A327D/L328Y/I332E (antibody, human IgG1, kappa)
heavy: EVQLVESGGGLVKPGGSLKLSCAASGYTFTSYVMHWVRQAPGKGLEWIGYINPYNDGTKYNEKFQGRVTISSDKSISTAYMELSSLRSEDTAMYYCARGTYYYGTRVFDYWGQGTLVTVSSASTKGPSVFPLAPSSKSTSGGTAALGCLVKDYFPEPVTVSWNSGALTSGVHTFPAVLQSSGLYSLSSVVTVPSSSLGTQTYICNVNHKPSNTKVDKKVEPKSCDKTHTCPPCPAPELLGGPSVFLFPPKPKDTLMISRTPEVTCVVVDVSHEDPEVKFNWYVDGVEVHNAKTKPREEQYNSTYRVVSVLTVLHQDWLNGKEYKCKVSNKDYPAPEEKTISKAKGQPREPQVYTLPPSREEMTKNQVSLTCLVKGFYPSDIAVEWESNGQPENNYKTTPPVLDSDGSFFLYSKLTVDKSRWQQGNVFSCSVMHEALHNHYTQKSLSLSPGK
light: DIVMTQSPATLSLSPGERATLSCRSSKSLQNVNGNTYLYWFQQKPGQSPQLLIYRMSNLNSGVPDRFSGSGSGTEFTLTISSLEPEDFAVYYCMQHLEYPITFGAGTKLEIKRTVAAPSVFIFPPSDEQLKSGTASVVCLLNNFYPREAKVQWKVDNALQSGNSQESVTEQDSKDSTYSLSSTLTLSKADYEKHKVYACEVTHQGLSSPVTKSFNRGEC
notes: HuAM4G7 anti-CD19 IgG1 (m1) with these Fc substitutions, EU index; copies: 2 + 2
B2: A330K (antibody, human IgG1, kappa)
heavy: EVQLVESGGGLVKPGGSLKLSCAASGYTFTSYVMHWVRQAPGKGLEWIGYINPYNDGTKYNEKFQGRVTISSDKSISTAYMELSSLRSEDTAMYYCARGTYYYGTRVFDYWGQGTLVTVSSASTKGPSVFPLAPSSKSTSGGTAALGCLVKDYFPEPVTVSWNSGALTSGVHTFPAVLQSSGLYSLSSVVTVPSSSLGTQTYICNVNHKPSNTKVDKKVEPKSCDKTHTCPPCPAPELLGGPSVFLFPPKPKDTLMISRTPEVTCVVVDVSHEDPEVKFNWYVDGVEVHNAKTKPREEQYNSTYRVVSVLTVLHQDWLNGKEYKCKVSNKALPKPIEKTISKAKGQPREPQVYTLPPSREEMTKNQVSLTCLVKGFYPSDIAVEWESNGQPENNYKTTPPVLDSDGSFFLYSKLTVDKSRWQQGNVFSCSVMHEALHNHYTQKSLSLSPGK
light: B1 light
notes: HuAM4G7 anti-CD19 IgG1 (m1) with this Fc substitution, EU index; copies: 2 + 2
B3: L235F/H268D/L328Y (antibody, human IgG1, kappa)
heavy: B1 heavy with L239F, H272D, D331A, E336I
light: B1 light
notes: as for B1
B4: K326W (antibody, human IgG1, kappa)
heavy: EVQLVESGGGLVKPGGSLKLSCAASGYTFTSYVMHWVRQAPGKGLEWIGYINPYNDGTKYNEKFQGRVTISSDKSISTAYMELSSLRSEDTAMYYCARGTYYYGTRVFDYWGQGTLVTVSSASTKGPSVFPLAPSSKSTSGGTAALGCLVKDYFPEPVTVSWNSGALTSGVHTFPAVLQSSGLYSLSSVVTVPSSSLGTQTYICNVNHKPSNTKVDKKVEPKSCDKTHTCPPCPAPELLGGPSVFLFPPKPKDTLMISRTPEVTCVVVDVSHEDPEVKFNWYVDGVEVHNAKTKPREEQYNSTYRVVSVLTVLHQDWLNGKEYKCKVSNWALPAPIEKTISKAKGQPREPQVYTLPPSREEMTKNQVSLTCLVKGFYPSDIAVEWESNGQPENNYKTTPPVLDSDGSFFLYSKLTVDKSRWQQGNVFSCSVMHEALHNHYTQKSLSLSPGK
light: B1 light
notes: as for B2
B5: L234W/S239D/L328Y (antibody, human IgG1, kappa)
heavy: B1 heavy with L238W, S243D, D331A, E336I
light: B1 light
notes: as for B1
B6: L234W/L328Y/I332E (antibody, human IgG1, kappa)
heavy: B1 heavy with L238W, D331A
light: B1 light
notes: as for B1
B7: K326D/L328Y/I332E (antibody, human IgG1, kappa)
heavy: B1 heavy with K330D, D331A
light: B1 light
notes: as for B1
B8: A330S (antibody, human IgG1, kappa)
heavy: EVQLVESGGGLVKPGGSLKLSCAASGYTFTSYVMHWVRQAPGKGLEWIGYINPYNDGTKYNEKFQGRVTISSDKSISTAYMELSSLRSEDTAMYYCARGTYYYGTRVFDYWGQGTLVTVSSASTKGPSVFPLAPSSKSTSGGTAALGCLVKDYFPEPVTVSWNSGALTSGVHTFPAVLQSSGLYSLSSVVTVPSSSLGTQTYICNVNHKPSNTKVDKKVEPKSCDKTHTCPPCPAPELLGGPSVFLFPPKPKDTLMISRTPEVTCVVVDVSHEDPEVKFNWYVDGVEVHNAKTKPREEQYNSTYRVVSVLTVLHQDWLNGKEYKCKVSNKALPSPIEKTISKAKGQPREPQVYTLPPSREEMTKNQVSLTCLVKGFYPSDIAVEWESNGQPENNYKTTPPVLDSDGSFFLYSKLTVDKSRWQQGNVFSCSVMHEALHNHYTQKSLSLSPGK
light: B1 light
notes: as for B2
B9: P331S (antibody, human IgG1, kappa)
heavy: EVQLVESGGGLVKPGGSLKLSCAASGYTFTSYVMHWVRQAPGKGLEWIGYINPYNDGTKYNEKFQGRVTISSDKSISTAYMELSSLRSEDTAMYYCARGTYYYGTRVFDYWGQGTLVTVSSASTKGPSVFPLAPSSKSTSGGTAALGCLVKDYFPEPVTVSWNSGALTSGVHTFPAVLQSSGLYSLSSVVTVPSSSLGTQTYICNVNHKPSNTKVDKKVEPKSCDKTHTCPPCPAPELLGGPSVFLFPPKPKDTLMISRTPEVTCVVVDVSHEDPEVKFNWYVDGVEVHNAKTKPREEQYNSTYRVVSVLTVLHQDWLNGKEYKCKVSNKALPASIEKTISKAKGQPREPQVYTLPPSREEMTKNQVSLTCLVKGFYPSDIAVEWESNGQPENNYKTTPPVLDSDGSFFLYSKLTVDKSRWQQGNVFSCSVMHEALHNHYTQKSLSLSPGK
light: B1 light
notes: as for B2
B10: H268D/K326D/L328Y (antibody, human IgG1, kappa)
heavy: B1 heavy with H272D, K330D, D331A, E336I
light: B1 light
notes: as for B1
B11: S239D/H268D/L328F (antibody, human IgG1, kappa)
heavy: B1 heavy with S243D, H272D, D331A, Y332F, E336I
light: B1 light
notes: as for B1
B12: H268D/L328Y/I332E (antibody, human IgG1, kappa)
heavy: B1 heavy with H272D, D331A
light: B1 light
notes: as for B1
B13: K326E (antibody, human IgG1, kappa)
heavy: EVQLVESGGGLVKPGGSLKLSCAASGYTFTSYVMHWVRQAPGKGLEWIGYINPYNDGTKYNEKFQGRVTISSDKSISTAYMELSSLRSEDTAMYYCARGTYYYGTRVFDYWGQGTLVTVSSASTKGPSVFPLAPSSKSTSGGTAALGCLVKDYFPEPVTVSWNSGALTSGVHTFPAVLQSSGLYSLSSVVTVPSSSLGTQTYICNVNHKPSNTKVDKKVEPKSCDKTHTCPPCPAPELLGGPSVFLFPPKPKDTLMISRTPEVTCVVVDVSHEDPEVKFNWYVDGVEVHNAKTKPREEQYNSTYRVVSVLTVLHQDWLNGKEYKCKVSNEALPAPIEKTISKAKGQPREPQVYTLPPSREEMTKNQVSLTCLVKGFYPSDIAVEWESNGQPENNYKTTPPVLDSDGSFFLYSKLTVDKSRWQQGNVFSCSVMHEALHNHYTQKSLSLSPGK
light: B1 light
notes: as for B2
B14: L235F/S239D/L328Y (antibody, human IgG1, kappa)
heavy: B1 heavy with L239F, S243D, D331A, E336I
light: B1 light
notes: as for B1
B15: K326A (antibody, human IgG1, kappa)
heavy: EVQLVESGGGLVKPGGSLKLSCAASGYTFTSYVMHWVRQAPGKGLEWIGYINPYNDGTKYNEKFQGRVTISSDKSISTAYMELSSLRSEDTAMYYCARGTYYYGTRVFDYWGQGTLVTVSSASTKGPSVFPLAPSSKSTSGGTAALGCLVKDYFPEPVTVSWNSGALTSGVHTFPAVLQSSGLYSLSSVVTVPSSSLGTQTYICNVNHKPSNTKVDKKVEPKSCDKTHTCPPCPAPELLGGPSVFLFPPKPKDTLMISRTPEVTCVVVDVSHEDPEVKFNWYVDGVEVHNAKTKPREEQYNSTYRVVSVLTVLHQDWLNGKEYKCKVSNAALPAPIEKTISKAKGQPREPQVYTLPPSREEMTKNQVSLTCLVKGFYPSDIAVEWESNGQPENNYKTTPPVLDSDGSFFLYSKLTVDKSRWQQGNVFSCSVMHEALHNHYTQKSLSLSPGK
light: B1 light
notes: as for B2
B16: L235F/L328Y/I332E (antibody, human IgG1, kappa)
heavy: B1 heavy with L239F, D331A
light: B1 light
notes: as for B1
B17: L328Y/I332E (antibody, human IgG1, kappa)
heavy: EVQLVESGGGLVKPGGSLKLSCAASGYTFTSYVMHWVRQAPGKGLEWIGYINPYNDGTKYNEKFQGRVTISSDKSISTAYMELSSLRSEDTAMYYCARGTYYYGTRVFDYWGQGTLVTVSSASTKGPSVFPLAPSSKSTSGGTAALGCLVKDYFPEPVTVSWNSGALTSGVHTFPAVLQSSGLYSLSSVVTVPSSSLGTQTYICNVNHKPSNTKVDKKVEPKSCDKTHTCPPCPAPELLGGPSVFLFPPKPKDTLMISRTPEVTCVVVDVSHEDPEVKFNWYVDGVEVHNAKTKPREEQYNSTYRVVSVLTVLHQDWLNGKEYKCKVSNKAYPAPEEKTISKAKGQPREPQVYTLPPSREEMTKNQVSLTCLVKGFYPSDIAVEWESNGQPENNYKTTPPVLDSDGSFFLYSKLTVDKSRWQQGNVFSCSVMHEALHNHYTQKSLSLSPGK
light: B1 light
notes: as for B1

Target: T1, cynoFcγRIIb
Experiment: SPR
Experimental: (§1) Variants were screened for receptor affinity using Biacore™ technology, also referred to as Biacore herein, a surface plasmon resonance (SPR) based technology for studying biomolecular interactions in real time. SPR measurements were performed using a Biacore 3000 instrument (Biacore, Piscataway, N.J.). A protein A/G (Pierce Biotechnology) CM5 biosensor chip (Biacore) was generated using a standard primary amine coupling protocol. All measurements were performed using HBS-EP buffer (10 mM HEPES pH 7.4, 0.15 M NaCl, 3 mM EDTA, 0.005% vol/vol surfactant P20, Biacore). Antibodies at 20 nM or 50 nM in HBS-EP buffer were immobilized on the protein A/G surface and FcγRs were injected. After each cycle, the surface was regenerated by injecting glycine buffer (10 mM, pH 1.5). Data were processed by zeroing time and response before the injection of FcγR and by subtracting appropriate nonspecific signals (response of reference channel and injection of running buffer). Kinetic analyses were performed by global fitting of binding data with a 1:1 Langmuir binding model using BIAevaluation software (Biacore).
(§2) Variant antibodies were tested for their affinity to mouse or cynologous monkey FcγRs using Biacore SPR as described above. Specifically, antibodies were first immobilized on a protein A/G chip to high density, and then followed by injections of the extracellular domain of the mouse or cynologous monkey FcγR of interest. Both association and dissociation phases were tracked in real time using the Biacore technology.

Row | Fold vs WT IgG1 (Kd) | Binder
1 | 1.02 fold | B1
2 | 2.02 fold | B2
3 | 3.17 fold | B3
4 | 0.078 fold | B4
5 | 5.92 fold | B5
6 | 2.04 fold | B6
7 | 4.78 fold | B7
8 | 0.255 fold | B8
9 | 0.25 fold | B9
10 | 9.38 fold | B10
11 | 3.17 fold | B11
12 | 4.08 fold | B12
13 | 1.03 fold | B13
14 | 5.2 fold | B14
15 | 1.36 fold | B15
16 | 4.11 fold | B16
17 | 4.6 fold | B17

Target: T2, mFcγRIIb
Experiment: SPR
Experimental: as §1, §2

Row | Fold vs WT IgG1 (Kd) | Binder
18 | 1.24 fold | B1
19 | 0.296 fold | B2
20 | 6.82 fold | B3
21 | 0.429 fold | B4
22 | 44.1 fold | B5
23 | 0.617 fold | B6
24 | 1.87 fold | B7
25 | 0.054 fold | B8
26 | 0.085 fold | B9
27 | 19.4 fold | B10
28 | 6.01 fold | B11
29 | 1.28 fold | B12
30 | 0.605 fold | B13
31 | 31.2 fold | B14
32 | 0.164 fold | B15
33 | 0.843 fold | B16
34 | 0.434 fold | B17

Target: T3, human FcγRIIb receptor protein (R&D …)
Experiment: SPR
Experimental: as §1

Row | Fold vs WT IgG1 | Kd | binding result | Binder
35 | 2.31 fold | 636 nM |  | B1
36 | 1.55 fold | 947 nM |  | B2
37 | 3.97 fold | 370 nM |  | B3
38 | 3.04 fold | 483 nM |  | B4
39 | 32.8 fold | 44.8 nM |  | B5
40 | 6.32 fold | 232 nM |  | B6
41 | 2.65 fold | 553 nM |  | B7
42 | 0.0635 fold | 23100 nM |  | B8
43 | 0.0372 fold | 39400 nM |  | B9
44 | 18.6 fold | 78.9 nM |  | B10
45 | 8.79 fold | 167 nM |  | B11
46 | 4.89 fold | 300 nM |  | B12
47 | 6.09 fold | 241 nM |  | B13
48 | 6.82 fold | 215 nM |  | B14
49 |  |  | no binding | B15
50 | 3.31 fold | 443 nM |  | B16
51 | 2.08 fold | 705 nM |  | B17
